Measured values published in article PMC3214078, “The PHD Finger of Human UHRF1 Reveals a New Subgroup of Unmethylated Histone H3 Tail Readers” (PLoS ONE, 2011).
Positions count from the first letter of the chain named. Names may count otherwise. Where no end group is shown, it is not given here. Me3 = trimethyl-lysine

Columns and labels:
Conditions in all cases: both partners purified
[1] = target: T1, huUHRF1-PHD(296–367), PHD finger of human UHRF1 with the additional N-terminal zinc finger (human, UniProt Q96T88 296-367); test: ITC; 20°C; histone peptides (1–12Y, 1.5–2 mM) injected into huUHRF1-PHD (0.12–0.18 mM); 20 mM Tris pH 7, 150 mM NaCl, 0.5 mM TCEP, 25 µM ZnCl2, 0.1 mM PMSF
T1 construct: Vector pHGGWA (Gateway); also called ICBP90 PHD finger
T1 sequence (looked up): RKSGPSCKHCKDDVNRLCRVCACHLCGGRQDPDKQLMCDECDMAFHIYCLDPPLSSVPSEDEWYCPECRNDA

[2] = target: T2, huUHRF1-PHD(296–367) D337A (human, UniProt Q96T88 296-367, D337A); test: as above
T2 sequence (looked up): T1 sequence (looked up) with D42A

[3] = target: T3, huUHRF1-PHD(296–367) D334A (human, UniProt Q96T88 296-367, D334A); test: as above
T3 sequence (looked up): T1 sequence (looked up) with D39A

[4] = target: T1, huUHRF1-PHD(296–367), PHD finger of …; test: crystal structure; huUHRF1-PHD(296–367) at 606 µM with a 10-fold excess of H3 peptide (1–8); vapor diffusion at 17°C, 0.1 M Tris pH 8.5, 0.2 M MgCl2, 30% PEG 4000; 1.95 Å

B1: histone H3 peptide (1–12Y), unmodified (peptide)
peptide: ARTKQTARKSTGY
notes: histone H3 N-terminal tail, residues 1-12; tyrosine after residue 12, read from the label '1–12Y'; also called unmodified H3; H3K4me0
- Kd [1]: 7.9 µM
- dH [1]: -17.6 kcal/mol
- Kd [2]: ~70 µM
- Kd [3]: > 500 µM

B2: histone H3 peptide (1–12Y) with K4 mutated to alanine (peptide)
peptide: ARTAQTARKSTGY
notes: histone H3 N-terminal tail, residues 1-12 with K4A; tyrosine after residue 12, read from the label '1–12Y'; also called H3K4A
- Kd [1]: 17 µM
- dH [1]: -14.1 kcal/mol

B3: histone H3 peptide (1–12Y) with trimethylated K4 (peptide)
peptide: ARTK(Me3)QTARKSTGY
notes: histone H3 N-terminal tail, residues 1-12; tyrosine after residue 12, read from the label '1–12Y'; also called H3K4me3
- Kd [1]: 25.9 µM
- dH [1]: -11.6 kcal/mol

B4: short histone H3 peptide including residues 1–8, unmodified (peptide, UniProt P68431 2-9, looked up)
peptide: ARTKQTAR
notes: histone H3 N-terminal tail, residues 1-8 (five of the eight seen in the map); also called unmodified histone H3 peptide; histone H3 tail
- binding result [4]: binds
